The target in assay [1] is lactoferrin (Homo sapiens) (UniProt P02788). Particulars: cited from earlier work.
The target in assay [2] is recombinant WU2 (r)PspA possessing only αHD and PRD (Streptococcus pneumoniae serotype 3 strain WU2). Kind of assay: SPR; Biacore T200; kinetic study, LF at several concentrations in PBS-P+ injected over rPspA amine-coupled to a CM5 chip; 25°C; fitted to a two-state binding curve. For orientation: SPR reads the build-up and loss of mass on a sensor chip optically.

On to mGAPDH (from UniProt P04406), for which the Kd (in general, the constant that tells how readily two partners part at equilibrium) in assay [1] is 0.0438 µM. On to “recombinant lactoferrin (from UniProt P02788 20-710) (natural protein)”, for which the Kd in assay [2] came out at 0.00389 µM.

Source of the values: publication PMC10746202.
